# Source: the supplement of paper PMC9732359
# ± gives the uncertainty stated by the source.
# Test: protein stability index of a GFP-peptide fusion (yeast GPS) (PSI 1-4); higher = more stable; sorted into four equal gates, so the index is relative within each strain
# Method in brief: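 Each library plasmid carries Cherry plus GFP with a tiled 17-residue yeast protein peptide fused downstream, and the pooled library was carried in yeast. Mid-log cultures in leucine-free medium were sorted into four equal gates by GFP/Cherry ratio. Reads from Illumina sequencing of PCR-amplified plasmids from each gate were assigned to strains by barcodes. Per peptide, the protein stability index was computed as the summed products of gate read frequency and gate number.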
sequence,measurement,setting,value
TQEFSKNYTTETDNEMN [SIR3],protein stability index,doa10∆,3.31 ± 0.12
same,protein stability index,pdr5∆,3.49 ± 0.064
same,protein stability index,san1∆,3.64 ± 0.075
same,protein stability index,ubr1∆,3.29 ± 0.055
IAVLIELLEERFQDSNP [YCS4],protein stability index,doa10∆,1.62 ± 0.032
same,protein stability index,pdr5∆,2.06 ± 0.058
same,protein stability index,san1∆,2.66 ± 0.063
same,protein stability index,ubr1∆,2.82 ± 0.069
KPQRTNTLRMKHGTYDK [RPB2],protein stability index,doa10∆,2.74 ± 0.081
same,protein stability index,pdr5∆,2.85 ± 0.061
same,protein stability index,san1∆,2.84 ± 0.062
same,protein stability index,ubr1∆,2.88 ± 0.044
ARSGLRIGRIEDVTPVP [RPS14A],protein stability index,doa10∆,2.69 ± 0.11
same,protein stability index,pdr5∆,2.91 ± 0.12
same,protein stability index,san1∆,2.92 ± 0.097
same,protein stability index,ubr1∆,2.85 ± 0.072
EFTKINTPLVGAAFKVI [YJL039C/NUP192],protein stability index,doa10∆,1.63 ± 0.039
same,protein stability index,pdr5∆,1.91 ± 0.044
same,protein stability index,san1∆,1.6 ± 0.084
same,protein stability index,ubr1∆,1.69 ± 0.037
DLSSAASASGAAGAGAA [FAS2],protein stability index,doa10∆,1.78 ± 0.13
same,protein stability index,pdr5∆,1.51 ± 0.11
same,protein stability index,ubr1∆,1.66 ± 0.19
NMVSLRGRNDTLERVHL [GRR1],protein stability index,doa10∆,2.85 ± 0.086
same,protein stability index,pdr5∆,3.22 ± 0.14
same,protein stability index,san1∆,2.39 ± 0.17
same,protein stability index,ubr1∆,2.73 ± 0.096
FTSAPIEVTIGIDQYSF [AAR2],protein stability index,doa10∆,1.52 ± 0.09
same,protein stability index,pdr5∆,1.93 ± 0.086
same,protein stability index,san1∆,1.53 ± 0.12
same,protein stability index,ubr1∆,1.64 ± 0.082
GTWSAKEAVFKSLGVKS [FAS2],protein stability index,doa10∆,2.94 ± 0.088
same,protein stability index,pdr5∆,3.34 ± 0.089
same,protein stability index,san1∆,3.23 ± 0.1
same,protein stability index,ubr1∆,2.88 ± 0.094
KFKHIDDKYGRKFALEK [SRP72],protein stability index,doa10∆,2.59 ± 0.061
same,protein stability index,pdr5∆,2.81 ± 0.069
same,protein stability index,san1∆,3.17 ± 0.054
same,protein stability index,ubr1∆,3 ± 0.052
YSPSNEISISFDVNNID [YDL116W/NUP84],protein stability index,doa10∆,2.4 ± 0.095
same,protein stability index,pdr5∆,2.62 ± 0.071
same,protein stability index,san1∆,2.31 ± 0.12
same,protein stability index,ubr1∆,2.58 ± 0.067
EIGGSDLKESMVKGLLK [ECM29],protein stability index,doa10∆,2.63 ± 0.23
same,protein stability index,pdr5∆,3.53 ± 0.16
same,protein stability index,ubr1∆,2.76 ± 0.21
SSLNLEDTPANDSSATR [RPB8],protein stability index,doa10∆,2.92 ± 0.067
same,protein stability index,pdr5∆,2.85 ± 0.065
same,protein stability index,san1∆,2.68 ± 0.063
same,protein stability index,ubr1∆,3.08 ± 0.048
SLIRNNLHAEGWPKLQL [ECM29],protein stability index,doa10∆,1.15 ± 0.056
same,protein stability index,pdr5∆,1.25 ± 0.081
same,protein stability index,san1∆,1.32 ± 0.17
same,protein stability index,ubr1∆,1.04 ± 0.085
GKQIKSTIYNWGDNKLA [YML103C/NUP188],protein stability index,doa10∆,2.71 ± 0.17
same,protein stability index,pdr5∆,3.18 ± 0.15
same,protein stability index,san1∆,2.82 ± 0.11
same,protein stability index,ubr1∆,2.87 ± 0.1
MEWPKDMLKYKEDEPVV [ITC1],protein stability index,doa10∆,2.75 ± 0.27
same,protein stability index,pdr5∆,3.12 ± 0.14
same,protein stability index,san1∆,3.36 ± 0.09
same,protein stability index,ubr1∆,3.67 ± 0.17
LFGSPPFILEYDLMAPN [YMR129W/POM152],protein stability index,doa10∆,2.74 ± 0.075
same,protein stability index,pdr5∆,2.9 ± 0.094
same,protein stability index,ubr1∆,2.94 ± 0.074
TEGPSDKKLNLNLPLQF [SNF12],protein stability index,doa10∆,3.12 ± 0.1
same,protein stability index,pdr5∆,3.31 ± 0.093
same,protein stability index,san1∆,3.31 ± 0.091
same,protein stability index,ubr1∆,2.87 ± 0.11
GNSESKVEKGVNIEPFN [LIN1],protein stability index,doa10∆,3.7 ± 0.13
same,protein stability index,pdr5∆,3.67 ± 0.17
same,protein stability index,san1∆,3.46 ± 0.08
same,protein stability index,ubr1∆,3.13 ± 0.079
VAFVCSPISDSRDELIR [RPN10],protein stability index,doa10∆,2.42 ± 0.093
same,protein stability index,pdr5∆,2.56 ± 0.11
same,protein stability index,san1∆,1.67 ± 0.12
same,protein stability index,ubr1∆,2.34 ± 0.099
LSSDDLLGKESFKKIIK [YCS4],protein stability index,doa10∆,3.25 ± 0.19
same,protein stability index,pdr5∆,3.08 ± 0.22
same,protein stability index,san1∆,3.39 ± 0.063
same,protein stability index,ubr1∆,3.57 ± 0.1
SKVSKQQAKGAFQKVAA [RPL24B],protein stability index,doa10∆,2.45 ± 0.042
same,protein stability index,pdr5∆,2.97 ± 0.043
same,protein stability index,san1∆,2.78 ± 0.036
same,protein stability index,ubr1∆,2.65 ± 0.036
DGKLIDISGTMSGGGNH [SMC4],protein stability index,doa10∆,3.42 ± 0.11
same,protein stability index,pdr5∆,3.4 ± 0.11
same,protein stability index,san1∆,3.54 ± 0.075
same,protein stability index,ubr1∆,3.6 ± 0.088
AQFAGRASIEYYVGQVM [DIS3],protein stability index,doa10∆,3.46 ± 0.28
same,protein stability index,pdr5∆,2.84 ± 0.2
same,protein stability index,san1∆,2.64 ± 0.17
GNQRKILQYSRTWYESF [YJR042W/NUP85],protein stability index,doa10∆,2.36 ± 0.099
same,protein stability index,pdr5∆,2.79 ± 0.1
same,protein stability index,san1∆,2.28 ± 0.17
same,protein stability index,ubr1∆,2.21 ± 0.21
QPDENTKEMDEVEEDDE [SWI3],protein stability index,doa10∆,3.22 ± 0.17
same,protein stability index,pdr5∆,3.49 ± 0.15
same,protein stability index,san1∆,3.53 ± 0.092
same,protein stability index,ubr1∆,3.43 ± 0.054
